Results taken from the supplement of paper PMC9170038.

Test system: MS2 coat protein
Test: apparent KD of MS2 coat protein; designed switch direction (-1 OFF switch, 1 ON switch): -1; higher = weaker reporter binding
Summary of the method: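 An oligonucleotide input, 200 uM small-molecule ligand, or no input was present during titration of SNAP-549-labelled MS2 coat protein, which was doubled from 0.7 or 1.5 nM to 3 µM. Designed RNA switches had been transcribed on Illumina chips by stalled E. coli RNA polymerase. Apparent KD per design is the median over clusters of curves fitted to normalised cluster fluorescence.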

[1] = Eterna round: R95, input ligand: FMN 200 uM
[2] = Eterna round: R95, input ligand: microRNA oligo, concentration not stated
[3] = Eterna round: R95, input ligand: none
[4] = input ligand: microRNA oligo, concentration not stated

| Sequence | apparent KD of MS2 coat protein [1] [nM] | apparent KD of MS2 coat protein [2] [nM] | apparent KD of MS2 coat protein [3] [nM] | apparent KD of MS2 coat protein (input ligand: FMN 200 uM) [nM] | apparent KD of MS2 coat protein (input ligand: none) [nM] | apparent KD of MS2 coat protein [4] [nM] |
| --- | --- | --- | --- | --- | --- | --- |
| UUAUAAACAUAGGAUAUCGAAUAAAUUAUUUAACGAGAAGGAUGAACAUGAGGAUCACCCAUGUGGUAUCAUGG [Mat - Exclusion 6 - JL Mod - D30] (puzzle: Exclusion 6) | 170 | 228 | 398 | – | – | – |
| UCCGGACAUGAGGAUCACCCAUGUUAGGAUAUCUGAGGUGUGCCAGGAUCCUGGGCCCAGAGAAGGAAUAUGGC [Eternabot (L2) Solution 28] (Eterna round: R97, puzzle: Exclusion 1) | – | – | – | 21.7 | 19.8 | – |
| GGCAUGUAAGGAUAUGCCACUGAGUGCUUUGCGCUCAGGAAGCAGAAGGUACAUGAGGAUCACCCAUGUGAUAA [jl-ex4-4.52 ViennaUCT mod] (Eterna round: R97, puzzle: Exclusion 4) | – | – | – | 109 | 714 | – |
| CAGUACUGAGGAUAUACAUGAGGAUCACCCAUGUGUUCCAGCUAGGAAACUAGCAAAAGUAGAAGGUAGUACUG [salish99_ex3_r3_086 (!)] (puzzle: Exclusion 3) | – | 14.7 | – | – | – | – |
| ACUUCACAUGAGGAUCACCCAUGUGAGGAUAUCGUCGAGGAUGUAAUGCCAUCCGUGGCGAGAAGGCGCAUGGG [Exclusion 1 (Mod1.1 solution 40 by Eternabot)] (Eterna round: R97, puzzle: Exclusion 1) | – | – | – | 28.5 | 79.8 | – |
| AGGGAGCGAGGAUAUACAGAGUAGGAAACUACUCCCUCAGUACAUGAGGAUCACCCAUGUAGAAGGCGCCCGAA [EX2 A.1] (Eterna round: R97, puzzle: Exclusion 2) | – | – | – | 38 | 23.8 | – |
| GGUGAAGCAGGAUAUGUGCUGGCAUACAUGAGGAUCACCCAUGUCAUGUAGGAACCACGUAUAGAAGGGCUUCACC [Exclusion 5 (FMN-MS2 slide v.10)] (Eterna round: R97, puzzle: Exclusion 5) | – | – | – | 50.7 | 28.1 | – |
| CCGGCCGCCGUGAGGAUAUGCCCGCGCGCCCGCGGGCAGAAGGCACAUGAGGAUCACCCAUGUCCCGCGGUCCC [salish99_bmx4_r4_123] (Eterna round: R97, puzzle: Brourd's mod of Exclusion 4) | – | – | – | 35.8 | 15.6 | – |
| GUACUGAAGCUUUGCUUUAGUCGUACAUGAGGAUCACCCAUGUAGGAUAUGGUAGGCUUUGCUUACCAGAAGGACAGAGUGAUC [JL EXNG3 1.25] (Eterna round: R96, puzzle: Exclusion NG 3) | – | – | – | 68.6 | 85.3 | 83.7 |
| GAUUAUGCGAGCUUUAGGGACAUGAGGAUCACCCAUGUUCGUCUUAUUGGUCUAAAUGCACUGACAUACCUAAAUCU [JMF 74] (puzzle: Sensor v3, turn-off variant 1) | 14.9 | 19.8 | 16.7 | – | – | – |
| GUGUAGUCAGGAUAUACAUAGGAAGAGAAGAGAAGAGAAGCACAUGAGGAUCACCCAUGUAGAAGGGACAGUGU [Excluse me!! 4 - Jieux - Exclusion 2] (puzzle: Exclusion 2) | 85.7 | 61.4 | 61 | – | – | – |
| CCAAGCUACUUCAUUAUCCACAUGAGGAUCACCCAUGUCUUGGCAAUUAUGACCUGCCCGUCAGGAGCUCGUCUUAU [Sensor-V1 #39] (Eterna round: R97, puzzle: Sensor, turn-off variant 1) | – | – | – | 113 | 55.2 | – |
| ACAUUGGUAGUGAGGAUAUCGGUGUGAUAGAAUGCCGAGAAGGCACAUGAGGAUCACCCAUGUAAGAUUGGGCA [JR_BMEx4_Sub043] (Eterna round: R97, puzzle: Brourd's mod of Exclusion 4) | – | – | – | 299 | 186 | – |
| UUUUACUUAGGAUAUACAUUUUUUUAUUUAUUUAUAAUAUUACAUGAGGAUCACCCAUGUAGAAGGGAGAUUUU [My Design] (Eterna round: R96, puzzle: Exclusion 2) | – | – | – | 76.9 | 72.3 | 64.3 |
| GUAAAGUGAGGAUAUGGUAAUUUAAUUAUUAAUUAAUUAAUCCAGAAGGCACAUGAGGAUCACCCAUGUAAAUG [Mat - Exclusion 4 - D90] (puzzle: Exclusion 4) | – | 31.6 | – | – | – | – |
| AAGAAACAUGAGGAUCACCCAUGUGAGGAUAUGAUCAAGAAAAGAAAAGAAAGAAGAUUCAGAAGGCACAAAGG [salish99-ex1_r3_056] (puzzle: Exclusion 1) | 124 | 160 | 362 | – | – | – |
| AAGGGUACUUUCGGAACGACAUGAGGAUCACCCAUGUAGACUGAGGAUAUCUGCUACUAAGGACGGGAGAAGGCAGUGUAAUGU [Ex NG3 #75] (Eterna round: R96, puzzle: Exclusion NG 3) | – | – | – | 18.5 | 18.7 | 12.8 |

| Sequence | apparent KD of MS2 coat protein [1] [nM] | apparent KD of MS2 coat protein [2] [nM] | apparent KD of MS2 coat protein [3] [nM] | apparent KD of MS2 coat protein (input ligand: FMN 200 uM) [nM] | apparent KD of MS2 coat protein (input ligand: none) [nM] | apparent KD of MS2 coat protein [4] [nM] |
| --- | --- | --- | --- | --- | --- | --- |
| UUAAUGGUUGUGAGGAUAUCGGAUAGAUAGAUAUUCGAGAAGGCACAUGAGGAUCACCCAUGUGUGAUUAGAAA [JR_BMEx4_Sub049] (Eterna round: R97, puzzle: Brourd's mod of Exclusion 4) | – | – | – | 260 | 24.6 | – |
| AACAAGCUUUUAAGAUGAAAGAUAGUAGGUAGCUCCUUUACAUGAGGAUCACCCAUGUUUGUGUAGCUCGAUCUUAU [JR_SV3TOV2_Sub076] (puzzle: Sensor v3, turn-off variant 2) | 12.3 | 37.4 | 11.5 | – | – | – |
| AGUACUAACACGAAAGUGUUAGUACAAUAAGCUAGUGGAACAUGAGGAUCACCCAUGUCCUCAUUAGCUCGUCUUAU [Mat - Sensor v3 - Turn-off var 2 - D33] (puzzle: Sensor v3, turn-off variant 2) | 16.3 | 36.6 | 13.4 | – | – | – |
| GUGUAGUCAGGAUAUACAUGAGGAUCACCCAUGUGAAUAAGAUAGAAUAAGAUAAAGUGUAGAAGGGACAGUGU [Excluse me!!! 4 - Jieux - Exclusion 3] (puzzle: Exclusion 3) | 33.8 | 34.1 | 35.9 | – | – | – |
| ACAUGUUAUGUAGGAUAUUGGACACAUGAGGAUCACCCAUGUAACCGGAGGCUUUACUAUGAGUUCGAGAAGGGUAUGAACAUG [Ex NG2 #67] (Eterna round: R96, puzzle: Exclusion NG 2) | – | – | – | 77.5 | 49.1 | 44.3 |
| GAGGUCGCAGGAUAUAGUACAUAGAACAUGAGGAUCACCCAUGUAGCGGGAGGUUCUAUAUUAGAAGGGUGAAGUC [Eternabot (L2) Solution 97] (Eterna round: R97, puzzle: Exclusion 5) | – | – | – | 572 | 494 | – |
| UUUUUAUAUGAAGGAUAUACUUAACAUGAGGAUCACCCAUGUGGUGUUGUGAGUGAGUGAGUUUAGUAGAAGGUCAAUUCGUUU [JMF's solution 80] (Eterna round: R96, puzzle: Exclusion NG 2) | – | – | – | 823 | 356 | 294 |
| UAUUAGCAAGCAAAUGGGUACAUGAGGAUCACCCAUGUGCUCGUCUUAUAAGGUACUGUGACGACAGUCACGGUACC [mod--Eli4] (Eterna round: R97, puzzle: Sensor, turn-off variant 1) | – | – | – | 24.5 | 25.3 | – |
| UUUAAGGGAAUUAAGAUCACAUGAGGAUCACCCAUGUAUAUAUAGGAUAUCAGCUCGUGUAGAGCUGAGAAGGAUAUAUACAUA [ExNG3/6-A3] (Eterna round: R96, puzzle: Exclusion NG 3) | – | – | – | 101 | 132 | 32.8 |
| UUUUAGGCAGGAUAUACAUGAGGAUCACCCAUGUAAAUUUUUCGUUUAACUUGAAUGUGUAGAAGGGCCAUUUU [Ex3 #59] (Eterna round: R97, puzzle: Exclusion 3) | – | – | – | 20.7 | 20.2 | – |
| GUGAUCUAUCAUGUAAUCAACAUGAGGAUCACCCAUGUAGACAAGUUUUUUGCUCGUCUGAUAAUAAGAUAGAUCAC [Antenna 16 - Jieux - Sensor, turn-off variant 1] (Eterna round: R97, puzzle: Sensor, turn-off variant 1) | – | – | – | 13.8 | 12.3 | – |
| CAGCUGAAAGUGAGGAUAUCUAGAGCUGCGGCUCUAGAGAAGGCACAUGAGGAUCACCCAUGUCUCAACAGCUG [BmEx4/1-A3] (Eterna round: R97, puzzle: Brourd's mod of Exclusion 4) | – | – | – | 51.9 | 18.1 | – |
| UUGCCGCAAGGAUAUGCAGACAAGUACAAUACGUGUCUCGGACUUGAGGAUCACCCAAGUAGAAGGCUUUUUAU [LRO-Excl2-14-mod _r4_621 by salish99] (Eterna round: R97, puzzle: Exclusion 2) | – | – | – | 23.7 | 21.4 | – |
| AGUAACAGAGGAUAUACUGUUUUAUGUGUUUAUUGUUUUGAACAUGAGGAUCACCCAUGUAGAAGGCUGAAUAA [JMF 94] (puzzle: Exclusion 2) | – | 21.7 | – | – | – | – |
| UCCUGGCGAGGAUAUACAAAGAUUUUUUCGUUUUGUCUCGAACAUGAGGAUCACCCAUGUAGAAGGUGCUGCUG [JR_Ex2_Sub014] (Eterna round: R97, puzzle: Exclusion 2) | – | – | – | 50.3 | 52.2 | – |
| ACAAGCUUUGAGUUCGUCUUAUACACUCCUAAUAAGAAAACAUGAGGAUCACCCAUGUAAGAAAUAAGAACUCAUGU [Sesor Array 3 - Jieux - Sensor v3, turn-off variant 2] (puzzle: Sensor v3, turn-off variant 2) | 25.5 | 291 | 27.8 | – | – | – |
